This note sets out measurements from the DeepSol protein solubility set.

The nature of this data set: soluble on expression in E. coli; label from the status in PepcDB or PDB records.
As to “RYIEKALKRPGNILIGTLPVGLDFPTRIVAEIVDAPSLTIEEIMRKAKYYLREGADIIDIGMESGKTNVEFLESVLPEIKEKINAPLSLDTLNPKEIEAGEKEVDLILSVDFGTVEEILPSKPVVLIPTNMKEGKFIEDPIGRAKALEKLKEKALNLGYKGLILDPILEHYPNFSRSLVAFYLYRMRNPQDILLAGVGNITEMMDADSVGLNALLASIAGELKISLLLTTEVSPKATGSVRELKRGIDMVLLGGVKDVGINLLILKEKRRKEQKIEFAKTIIRAKKKPVKLEEVYFKIYVVGTELAVTAYKGTNPVMTIIGKEPNEIIDTILEHFSISPRHAFYLGRELEKAYTGLKIRRSYIQEEELFGDFYFEK”, the “soluble on expression in E. coli” value is listed as “not soluble”.

Regarding “MTSALPRPAPSPYARRKTALVIGAGFGGLALGIRLQSLGFDTTILERLDGPGGRAYQKRTPDGYVFDMGPTVLTVPHFIEELFALERDRAGLDAPDYPPEVLSGERVKEGVSGGPHTSRYVTLVPILPFYRIVFHDGTYFDYDGDPESTRRQIAELAPGDLAGYERFHADAEAIFRRGFLELGYTHFGDVPTMLRVVPDLLKLDAVRTLFSFTSKYFQSDKLRQVFSFETLLVGGNPLSVPAIYAMIHFVEKTWGIHYAMGGTGALVRGLVQKFEELGGAIRYGAGVDEVLVDGNLPGKRTARGVRLESGEELRADLVASNGDWANTYLKRVRPSARLVNSDLRVKAASESMSLLVVYFGFRGGDDLPLKHHNILLGPRYEALLSEIFGTKRLGEDFSQYLHVPTLTDPALAPAGHHAAYTLVPVPHNGSGIDWDVEGPKLAEAALADIERRGLIPGLRERLTHFEFITPDYFAGTLDSYLGNAFGPEPRLVQSAFFRPHNRSEDLHNFYLVGAGAQPGAGTPSVMMSAKMTARLIAEDFGIHADIRRLEHHHHHH”, the “soluble on expression in E. coli” value was “not soluble”.

As to “MGSDKIHHHHHHMLTDMQRDSASSSTVTTEQIVYGALPLTTINEPECRAIAITSINGSATLSGVSGPMGDQTDADLLIQLRGWADAIVVGAETARKENYGPVVLPHGIKNQRQKLGRCGLPKLTLLSKSLYFDFSSELFSPDLPSELSPLVITQQPANNSEQWDQRLQKLIDVGVEVIVAPTSTNPLKIAFDALHARRLKKISIEGGPSVYRQALSLGIVDRLHLTIAPNIICPVESPLFGKISDDSFTTRLVLEMLSSSPNGLIFSRYKVIRDTLGNPTQ”, the “soluble on expression in E. coli” value is reported as “not soluble”.

“MGSDKIHHHHHHMSFKDIQADFIEAIRRPDLPCPHGIAPQRMGVYRELFFNNVSGFVNSGFPVLKSLYGEAQWQAQLRQFFTEHDCQNPLFIGIAGEFLAFLSARERQVDEPPFLLELAHYEWLELVVATAMEQGDEAAFDDTALAQQAYLDARLGLASHARVAQYHFEVEKISPQYQPDTPLPSPCYFCLYRDSDDEVSFLKLNPMTAQLLAVLEANTGIKYIELLQKMQALYPNFDGQQLREGIAQVLGQMAVRGVVVQKLQ”: the “soluble on expression in E. coli” value is recorded as “not soluble”.

For the sequence “MSLLEWDLSALFHDKEALQNFTQDQIQQSLNFKKNYENKLYTLNANEFLQALKDYENLNQALGKIMTYAYLLFAKNTQNGSFYAQYEEECKKIEENLLFFELEFCELAPEKSREFTTFCKDYDFYLSNLLQNKRYNLSKNEERIMLYLSNTGANAFSRLFDESMSALKIPFEGKKLSEEEILSKMYDENRKIRKKAAKKFSKVLQKNSRLLSFIINMIKTERKNISLLRGYENAEISRHISNQISQKSVDSLIASAQKHFNLVSQFYKRKKQILGYDELKDYDRYAPIGKEASFDFKTSKNIVLEAFQAFSPQFYDIAKNAFDQGWIDVYPQENKQGGAFSHSATSDAHPFVLLNHTNKRRDLFTLAHELGHTIHQKLSYNVSYLNQNTPLTTAETASVFAEMLVFDFIKDKLKKEELLSLYANKIEDIFATFYRQINFTCFERRLHAQENELSTEEINKIWMEESQKMFQDSVKLTKNYASWWSYIPHFIHSPFYCYAYAYAQLLVLALYGLYKSKKCENFKELYIKMLSLGGSVSPKELVGMFGFDIEDENFWEIGIKEIQKLINEFMELQSEGHHHHHH”, the “soluble on expression in E. coli” value was “soluble”.

Regarding “MSEIAMHVTAKPSSFQCNLKCDYCFYLEKESQFTHEKWMDDSTLKEFIKQYIAASGNQVYFTWQGGEPTLAGLDFFRKVIHYQQRYAGQKRIFNALQTNGILLNNEWCAFLKEHEFLVGISIDGPQELHDRYRRSNSGNGTFAKVIAAIERLKSYQVEFNTLTVINNVNVHYPLEVYHFLKSIGSKHMQFIELLETGTPNIDFSGHSENTFRIIDFSVPPTAYGKFMSTIFMQWVKNDVGEIFIRQFESFVSRFLGNGHTSCIFQESCKDNLVVESNGDIYECDHFVYPQYKLGNINKSELKTMNSVQLTAQKKRISAKCQQCAYKPICNGGCPKHRITKVNDETVSYFCEGYKILFSTMVPYMNAMVELAKNRVPLYHIMDVAKQMENN”, the “soluble on expression in E. coli” value was “not soluble”.

As for “MGSDKIHHHHHHMPATVPFVGPEAIERQRNLPVKARIGANESGFGPSPKVHLALQAASSDIWKYADPENFDLKAALAAHYGLAADNFAVGEGVDDLLGLTVRLVIEQGLPVVTSLGGYPTFNFHVNGFGGQLVTVPYRQDREDLDGLLEAVRRENAPLAYLANPDNPMGSWHESHDVVAFARALPETCLLILDEAYSETAPAGSIPAVDALIDLPNVLRMRTFSKAYGLAGARIGYAIGTPGTVSAFDKIRNHFGMVRTSVAAALAALADQDYLTATVARIIAARERISSIARQNGLQPLASATNFVAVDCGRDPAYARSIVDGLMQHGVFIRMPGVAPLNRCIRISAGLPEDLDLLEQALPIVLRDIG”, the “soluble on expression in E. coli” value is recorded as “not soluble”.

“MEEDNQQDQNNQYVIYHPFFSEGCHFYFIISCTNSFIRVALKIGLIGDSQIGKTSLMVKYVEGSFDEDYIQTLGVNFMDKKIQIRNTTITFSIWDLGGQKEFINMLPLVSNDAVAILFMFDLTRKSTLNSIKEWYRQVRGFNKTAIPFLVGTKYDQFIDLSFQDQIEITQQAKKFGSAMKAPVIFCSTSHSINVQKIFKIILSKAFDLKLNLDEIVNVGEPILIYK”: the “soluble on expression in E. coli” value was “not soluble”.

Consider “PQKIFTPSAEIVKYTKIIAMEKLYAVFTDYEHDKVSRDEAVNKIRLDTEEHLKEKFPEVDQFEIIESFNIVAKEVFRSIILNEYKRCDGRD”, for which the “soluble on expression in E. coli” value is recorded as “soluble”.

In the case of “MSLSVLKICTKDQKGLIYRISDVIFKYHINIVKNDEFVGEGMFFFRALLEGEFDKEAFIGTLEAMLGQEALIELCEKRKKDIVVFATKESHCLGDLLIKHYSNELEANIKAVISNHNSLKDLVEKFEIPYHFISAENLDRKEQENQILKCLEQYKFDYLVLAKYMRILSPDFVRHFEGKIINIHHSFLPAFIGANPYKQAFERGVKIIGATAHFVNNNLDEGPIITQAVSPVNHEFTWQDMQQAGRNIEKDVLSKALDLAFEDRIFIHNNKTIIFEGHHHHHH”, the “soluble on expression in E. coli” value is listed as “soluble”.

On to “MPWRTALKVALAAGEAVAKALTRAVRDEIKQTQQAAARHAASTGQSASETRENANSNAKLGISLEESLQILNVKTPLNREEVEKHYEHLFNINDKSKGGTLYLQSKVFRAKERIDEEFGRIELKEEKKKEENAKTE”, for which the “soluble on expression in E. coli” value is recorded as “not soluble”.

Take “MNMLEKIQSQLEHLSKSERKVAEVILASPDNAIHSSIAALALEANVSEPTVNRFCRSMDTRGFPDFKLHLAQSLANGTPYVNRNVNEDDSVESYTGKIFESAMATLDHVRHSLD”: the “soluble on expression in E. coli” value is recorded as “not soluble”.

On to “GMADIDQASKTEMEAAAFRHLLRHLDEHKDVQNIDLMIQADFCRNCLAKWLMEAATEQGVELDYDGAREYVYGMPFAEWKTLYQKPASEAQLAAFEAKQAARKR”, for which the “soluble on expression in E. coli” value was “soluble”.

Consider “MSLQFSFDPVSNAPMVSFPSTQQPDLEKLRFKFAPVLSRSFAFNGGSRTGTLYGVQVPYVDNSKEFSQYAAKLFEVYKSLGADKQFAVPTIGLINHTSTLEHNQTVNLALEAIVSELELFIESLKYSGRQQRLVDLEECLSILNCLKTVQFTLDSEEENSRAKFIDSLISWVNRTDGEPSEAVIAKVLGDGKQTPILENPYFWRLLCQLIIRGLFDQAVAAIEKSELLSYLADKCSATHTMVQDMVNLLQGYPRELEPVYREWKDLVLQLHLNWSQSEHKISIELASSLEDCLLIMCGNKSKIIYYSKTWYECYCGLMLYYIPSLQLSEEYLQLVLKEHPLDVTSPWEQACVSIITGKIYSILPVLDSLDSCTAAFTAAICEAKGLLENDLLDDGGLEVSNTGDEMFGLGNTMASYLLNQFALSIVTYEDKNLWAVAIGIIYLTPNYSDAAKRMMIAELLPHYPFQTNDDIEWMLTICAKWKLPQIARTIYRVLGQEALYLNNIIEAISNFSKAGEFEWVKEGHHHHHH”, for which the “soluble on expression in E. coli” value was “soluble”.

Consider “MRNITNFLKTFLLWELLKGLKVTGKHFFTRKVTVQYPDEKTPISNRFRGLHALRRYENGEERCIACKLCEVVCPALAITINSTEREDGTRRTSSYEMDLFKCIFCGYCEESCPVDSIVETNILEYHFEERGENIMTKAKLLAIGDKYEAQIAADRLQDKDFR”, for which the “soluble on expression in E. coli” value was “not soluble”.

With “MSAALEKPQIIAHIQKSLNYTVFESKWIPCSAKFVCMGNFARGTGVMQIYEIQHGELQLVREIEKSKPIKCGTFGATSLQQRHLATGDFDGNLNVWNLEVPDSPVYSVKAHKEIINAIDGVGGLGIGDGAPEIVTGSRDGTVKVWDSRQKDTPVVNMEPTEGETKRDCWTVAFGHAFNDQDRCVCAGYDNGDIKLFDLRNMSLRWEKNIRNGVCSVEFDRKDINMNKLVATSLEGKFHVFDMRTQHPSKGFASVSEKAHKSTIWQVRHLPQNRDVFMTAGGAGNLHLWKYEYPAQRSKKGADDVEMGVAGSVNLLQNVTLSTQPISSLDWSPDKQGLCVCSSFDQSVRVLIVTKLNTV”, the “soluble on expression in E. coli” value is “soluble”.

Consider “MEKRITTPLTDEVVKSLRAGDKVLITGYIYTARDAAHKRMVEAIQRGEKPPIDLKGQIIYYVGPTPPKPGQVIGSAGPTTAIRMDKYVEPLLKLGLKGMIGKGYRSPQVKELLKKYKAVYFAAVGGVATLLQKHIKSSELIAYEDLGTEAIRRLYVEDFPVIVANDAFGGDVFEEGRKKYAKIDV”, for which the “soluble on expression in E. coli” value is reported as “soluble”.

In the case of “MGSDKIHHHHHHMSDSPLIAFPRGCITGTFIRRVKRFSVEMETAGAGAPERVWIHSNNSGSMLGLLRAGAPVLASPAANPARKLKWTQELAGLDGMWVGVNTQTPNRLLEAAFHAGRLPWAAGYTMFRREARCGASRLDARMDAPQDSGLPPLWVECKNVTMVEDDVAAFPDAATERGQKHLREMMEIVRQGQRAAMFYLVQRADGHCFGPADYVDPVYAGLFYEAAAAGVEMYPHRALVSEHGIDLGPLLPVVPPPGV”, the “soluble on expression in E. coli” value is reported as “not soluble”.

“MKSAYIFFNPKSGKDEQALAKEVKSYLIEHDFQDDYVRIITPSSVEEAVALAKKASEDHIDLVIPLGGDGTINKICGGVYAGGAYPTIGLVPAGTVNNFSKALNIPQERNLALENLLNGHVKSVDICKVNDDY”: the “soluble on expression in E. coli” value is “not soluble”.

On to “MGSDKIHHHHHHSGEKKESASEKGVETVLPDTKNEVSVMTLKKQIFNHELVSNGKISARGMADLRFESGEVIAHIWVKNGDRVRKGQKLAELDKFKLDNQLSQSEDALKKSELELRDVLISQGYPADDISQVPEETMKLAKVKSGYDQSKSQYEMSKYNAEHATLTAPFDGVVANLFSKPYNLASTSDVFCTVIDMQGMEVDFTVLESELPLIKNGDKVVIKPYSDAATVHEGSISEINPLVDDKGMVKVKARVNGAGKLFSGMNVRVSVHRSLGEQLVIPKSAVVLRSGKQVVFTLKDGKMAQWNYIHTALENADSYSVADGLTEGDTVIVSGNINLAHEAPVTIIE”, for which the “soluble on expression in E. coli” value is “not soluble”.

“MGSDKIHHHHHHMTTKKFRMEDVGLSKLKVEKNPKDVKQTEWKSVLPNEVYRVARESGTETPHTGGFNDHFEKGRYVCLCCGSELFNSDAKFWAGCGWPAFSESVGQDANIVRIVDRSHGMHRTEVRCKTCDAHLGHVFNDGPKETTGERYCINSVCMAFEKKD”: the “soluble on expression in E. coli” value was “not soluble”.
